The text below walks through data of publication PMC3601014, “Blood-brain barrier transport of amyloid beta peptides in efflux pump knock-out animals evaluated by in vivo optical imaging” (Fluids and Barriers of the CNS, 2013).

In one series the test system is Abcb1 and Abcg2. Details: method as in PMID 22391220. As to conditions: in situ brain perfusion, Abcb1-deficient mice; cited from earlier work.
The nature of series [1]: Western blot analysis of Aβ peptide solution (monomers/dimers). Conditions: dissolved in 10 mM NaOH, HEPES to pH 8.0, data not shown. Format: physicochemical. As to the method: Aβ1-40 peptide used in this study for optical imaging/tracking is the most abundant Aβ peptide found in the cerebral vasculature and is more soluble than Aβ1-42 peptide. Aβ1-40 peptides (1 mg/vial) were dissolved in 250 μL of 10 mM NaOH, and then 12.5 μL of 1 M HEPES [4-(2-hydroxyethyl)-1-piperazineethanesulfonic acid] was added to bring the pH to 8.0. The peptides were divided into 2 tubes (0.5 mg/tube) and kept at −80°C. Because Aβ peptides are commonly present as beta sheet structure in solution, Western blot analyses of the mixtures were performed, and the majority of the peptides (>95%) were monomers with a small proportion of dimers (data not shown). Aβ1-40 or scrambled Aβ40-1 peptides (0.5 mg, molecular weight 4329.86D) were labeled with the near-infrared fluorescent dye Cy5.5 (molecular weight 1128.42D) using the labeling kit (Cy5.5™ Mono NHS ester) as per manufacturer’s instructions.
For orientation: Immunoblotting shows a protein as a band on a membrane.

Series [2] can be described thus: Time-domain in vivo optical imaging of head ROI, wild-type mice. Also noted: species or system mouse. As to conditions: i.v. injection, imaged 2–8 h; wild-type and KO mice. The source says:
(§1) The experiments with animals have been approved by the Animal Care Committee of the National Research Council of Canada - Ottawa (NRC). Wild-type (wt), mdr-1a/b (Abcb1a/b) knockout (Abcb1^KO), and Abcg2^-KO mice of FVB background were purchased from the Taconic Farms Inc (New York, USA) and maintained in the NRC Animal Facility at Ottawa. Pairs of adult wild-type mice and Abcb1^-KO and pairs of adult wild-type and Abcg2^-KO mice of the same body weight and same sex were matched for injections and imaging experiments. After initial testing of fluorescence signal with various injected doses of Cy5.5-labeld Aβ peptides, the optimal dose selected for the experiments was 100 μg of labelled peptide in 200-μL volume. […]
(§2) Briefly, each animal was positioned on a platform (dorsal side facing up) that was then placed on a heated plate (at 36°C) in the imaging system. […] The fluorescence emission at 700 nm was collected by a highly sensitive photomultiplier tube offset by 3 mm for diffuse optical topography reconstruction. […] A pulsed light source and time-resolved detection allows the system to resolve the nanosecond timescale of fluorescence emission. […] The data were thus recorded as TPSF and the images were reconstructed as fluorescence concentration maps. […] Brains were then extracted and scanned ex-vivo for fluorescence concentration

A further series concerns the target T1, Abcg2 (Mus musculus, UniProt Q7TMS5).
T1 construct: five pairs of adult wild-type and Abcg2^-KO mice were intravenously injected via the tail vein; tissue Taconic Farms Inc; host or cells: living FVB mice (head ROI / brain, blood-brain barrier)
T1 sequence (Q7TMS5 1-657): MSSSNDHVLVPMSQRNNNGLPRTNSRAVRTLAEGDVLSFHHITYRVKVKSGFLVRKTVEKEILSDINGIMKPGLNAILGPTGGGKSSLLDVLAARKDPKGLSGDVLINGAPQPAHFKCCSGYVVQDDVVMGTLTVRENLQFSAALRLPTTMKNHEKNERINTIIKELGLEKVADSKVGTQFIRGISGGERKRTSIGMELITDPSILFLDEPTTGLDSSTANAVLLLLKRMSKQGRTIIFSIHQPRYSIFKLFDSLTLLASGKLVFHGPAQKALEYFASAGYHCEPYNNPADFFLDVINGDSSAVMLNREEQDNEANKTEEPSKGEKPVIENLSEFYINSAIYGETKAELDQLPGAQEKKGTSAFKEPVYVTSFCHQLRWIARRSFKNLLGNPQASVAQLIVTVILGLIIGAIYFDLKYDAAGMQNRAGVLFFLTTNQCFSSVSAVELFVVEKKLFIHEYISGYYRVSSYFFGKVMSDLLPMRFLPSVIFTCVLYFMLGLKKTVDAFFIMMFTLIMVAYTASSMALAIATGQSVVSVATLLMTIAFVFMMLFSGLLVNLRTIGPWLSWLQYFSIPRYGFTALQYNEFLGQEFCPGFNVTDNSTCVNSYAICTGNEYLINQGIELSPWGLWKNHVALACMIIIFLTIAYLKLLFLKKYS
The series is described as follows: Time-domain in vivo optical imaging of head ROI, Abcg2-KO mice. As to conditions: i.v. injection, imaged 2–8 h, 4 animals per group.
Text: as §1, §2

The subject of series [3] is mdr-1 P-glycoprotein/Abcb1. The series is described as follows: Time-domain in vivo optical imaging of head ROI, Abcb1-KO mice. Also noted: species or system mouse. Conditions: i.v. injection, imaged 2–8 h, data not shown.
Text: as §1, §2

The conditions of series [4]: no reference given; cited from earlier work. An excerpt: To enable prospective in vivo optical imaging of the distribution of peripherally-injected Aβ peptides, the peptides were labeled with the near-infrared fluorescent dye Cy5.5. Since the principal aim of the present study was to monitor brain distribution of Cy5.5-labeled Aβ peptide in mice lacking major ABC transporters, the fluorescent tracer itself should not be the substrate for these transporters. To compare the permeability of BBB for Cy5.5 in wild-type, Abcb1^-KO and Abcg2^-KO animals, equal amounts of Cy5.5 tracer were intravenously injected into two pairs of wild-type and knockout mice ...

Series [5] can be described thus: Serial whole-body imaging (biodistribution and systemic elimination). Format: in vivo, mouse. Conditions: 100 μg i.v.; wild-type, Abcg2-KO and Abcb1-KO mice. As to the method: The animals were anesthetized with inhaled isoflurane (4% for induction and 1.5% for maintenance) and the fur was shaved from the head and dorsal side of the body. The labeled peptides (100 μg) or Cy5.5 free dye (~78 μg) were injected intravenously (i.v.) via the tail vein. The animals were imaged at 2, 4, 6, and 8 h post-injection using the time-domain optical imager eXplore Optix 670 (GE Healthcare Systems/ART Inc). The imaging protocols were described in detail previously.
Briefly, each animal was positioned on a platform (dorsal side facing up) that was then placed on a heated plate (at 36°C) in the imaging system. The whole-body scan or selected region of interest (ROI) scan (i.e., head) was performed as described. […] The fluorescence emission at 700 nm was collected by a highly sensitive photomultiplier tube offset by 3 mm for diffuse optical topography reconstruction. […] A pulsed light source and time-resolved detection allows the system to resolve the nanosecond timescale of fluorescence emission. […] The data were thus recorded as TPSF and the images were reconstructed as fluorescence concentration maps. Average fluorescence concentration data from ROI placed around the heads were subsequently analyzed using the software ART Optix Optiview (ART Inc., Montreal, QC, Canada). […] Brains were then extracted and scanned ex-vivo for fluorescence concentration […]

The nature of series [6]: Aβ-Cy5.5 conjugate stability in serum. Format: in vitro ADME, bovine. As to conditions: 1:8 v/v, ~1 μg Aβ, 37°C, 0–8 h, Tricine-SDS-PAGE, optical imaging and 6E10 immunoblot. Here is the method: To evaluate Aβ-Cy5.5 conjugate stability in serum, the labeled peptide (5-μL volume containing ~1 μg Aβ) was added to either 35 μL of (non-inactivated) FBS or 35 μL of 1 × PBS (1: 8 dilution) and incubated at 37°C for 0, 0.5, 1, 2, 4, 6, and 8 hours, respectively. The peptides (4 μL) from each of the above reactions (40 μL/reaction) were added to the loading buffer, boiled for 10 min, and resolved on a 16% Tricine-SDS-PAGE as described. The tricine-SDS-PAGE gel was scanned in the optical imager; the peptides in the gel were then transferred to a PVDF membrane for immuno-blotting. A mouse monoclonal anti-human Aβ antibody 6E10 (1:1000 dilution) and the secondary HRP-conjugated donkey anti-mouse IgG antibody (1:5000 dilution) were used for immunodetection. ECL plus detection reagents were applied to the blots and the blots were exposed to autoradiography films.

The nature of series [7]: Aβ immunohistochemistry in brain sections (6E10 antibody). It counts as in vivo, mouse. As to conditions: 100 μg i.v., brains collected 8 h post-injection; wild-type and Abcg2-KO mice; 3 animals per group. An excerpt: The sections were also counter-stained with fluorescein-labeled lectin, Ulex europeaus agglutinin (UEA-I), as described to visualize cerebral vessels.
For series [8] the following is noted: in vivo, cited from earlier work. Here is the method:
Head ROI imaging protocols were initiated 2 hours after tracer injection, allowing 3–4 circulation half-lives; therefore, measured head fluorescence concentration was primarily indicative of the brain-accumulated/retained tracer, with small contribution of circulating tracer.

`COc1cc2c(cc1OC)CN(CCc1ccc(NC(=O)c3cccc4c(=O)c5cccc(OC)c5[nH]c34)cc1)CC2` [GF120918]: the “Effect on brain uptake of [3H]-Aβ1-40” value with Abcb1 and Abcg2 is reported as “strongly enhanced”.
As to “Aβ1-40: Synthetic human Aβ1-40 peptide purchased from Biopeptides Co.”, the “Proportion of peptide present as monomers” value in series [1] is listed as greater than 95%.
As to Cy5.5, the “Fluorescence in the head ROI after circulation time” value in series [2] is listed as “close to background”. Besides, on Abcg2, the “Head ROI fluorescence, wild-type versus Abcg2-KO” value is on record as “not different”. Moreover, the “Head ROI fluorescence, wild-type versus Abcb1-KO” value in [3] is given as “not different”. Besides, in series [4], the Plasma half-life result is “about 30 min” and the “Time in which majority of the dye is cleared from the body” value was 2 h.
Regarding “Cy5.5-labeled Aβ1-40: Synthetic human Aβ1-40 peptide labeled with the near-infrared fluorescent dye Cy5.5 (Mono NHS ester)”, in series [5], the “Whole-body elimination of fluorescence” value is “almost complete disappearance of fluorescence from the body between 2 h and 4 h after injection”. Besides, in series [6] (1 × PBS), the “Stability of conjugate in PBS” value is given as “no appreciable reductions of intact Aβ peptide bands”. Further, the “Stability of conjugate in serum ex vivo” value in series [6] (non-inactivated FBS) is given as “mostly intact in the serum ex vivo up to 8 hours”. Besides, the “Immunoreactive Aβ in brain sections” value in [7] is “detected”.
In the case of “[^123I]-Aβ1-40: intracerebrally microinfused 123I-labeled Aβ1-40, literature SPECT study”, the “Brain clearance short t1/2 (bi-phasic)” value in [8] (monkey) is 1.1 ~ 2.7 hours.
For the compound “[^125I]-Aβ1-40: brain-injected 125I-labeled Aβ1-40 peptide, literature”, the “Brain clearance t1/2” value in series [8] was 25 min.
